Test results published in patent US10202593B2, “Evolved sortases and uses thereof” (President and Fellows of Harvard College, priority 2013, dated 2019).
Positions count from the first letter of the chain named. Names and notes keep the numbering of the source.

B1: eSrtA(2A-9): P94R, S102C, A104H, E105D, K138P, K152I, N160K, K162H, T164N, D165A, K173E, I182V, K190E, T196S (protein)
chain: QAKPQIPKDKSKVAGYIEIPDADIKEPVYPGPATREQLNRGVCFHDENESLDDQNISIAGHTFIDRPNYQFTNLKAAKPGSMVYFKVGNETRIYKMTSIRKVHPNAVEVLDEQEGKDKQLTLVTCDDYNEETGVWESRKIFVATEVK
B2: eSrtA (protein)
chain: QAKPQIPKDKSKVAGYIEIPDADIKEPVYPGPATREQLNRGVSFAEENESLDDQNISIAGHTFIDRPNYQFTNLKAAKKGSMVYFKVGNETRKYKMTSIRNVKPTAVEVLDEQKGKDKQLTLITCDDYNEETGVWETRKIFVATEVK
B3: eSrtA(4S-9): P94R, N98D, S102C, A104V, A118T, F122A, K134R, F144L, D160N, D165A, I182V, E189F, K190E, K196T (protein)
chain: B2 chain with N39D, S43C, A45V, A59T, F63A, K75R, F85L, I123V, E130F

Assays:
[1] = Materials (surface) functionalization of GGG-PEG 96-well plates; format: biochemical; conditions: Alexa Fluor 488-LAETGG or Alexa Fluor 647-LPESGG, 2 hours
Method: FIG. 21A-D show applications of evolved sortases. (A) N- and C-terminal labeling of fibroblast growth factors FGF1 and FGF2. Tandem SUMO-TEV cleavage site-FGF1/2-LPESG-His6 (SEQ ID NO: 27) constructs were treated with eSrtA(4S-9) in the presence of GGG-PEG, then with eSrtA(2A-9) and TEV protease in the presence of Alexa Fluor750-LAETGG (SEQ ID NO: 35) and purified to afford the final conjugates in up to 20% yield (Table 3). The crude reactions were analyzed by SDS-PAGE and scanned for fluorescence at 700 nm. (B) Surface functionalization using eSrtA(2A-9) and eSrtA(4S-9). […] The total fluorescence of the resulting surfaces was measured at 488 nm or 647 nm, then normalized to the fluorescent intensities obtained from the samples containing eSrtA(2A-9)+488-LAETG (SEQ ID NO: 5) or eSrt(4S-9)+647-LPESG (SEQ ID NO: 3). […]
GGG-functionalized substrate was generated by incubating 100 μL of 2 μM biotin-PEG (5K)-GGG in streptavidin coated 96 well microplates (Pierce) for 2 hours at room temperature, and washed three times with TBST buffer (20 mM Tris, 100 mM NaCl, pH 7.5 with 0.05% Tween 20). […] Total fluorescent intensities were measured at 488 nm and 647 nm using a Biotek Synergy NEO HTS Multi Mode microplate reader. […]

fetuin A in human plasma = target: T1, fetuin A in human plasma (Homo sapiens, UniProt P02765); test: Plasma labeling of fetuin A with GGGK(biotin); format: biochemical; conditions: for overall conjugation efficiency in human plasma (fetuin A, densitometry): 2 hours, room temperature
T1 construct: site-specific modification of endogenous fetuin A in human plasma; tissue VWR 89347-902; host or cells: normal human plasma
T1 sequence (P02765 19-367): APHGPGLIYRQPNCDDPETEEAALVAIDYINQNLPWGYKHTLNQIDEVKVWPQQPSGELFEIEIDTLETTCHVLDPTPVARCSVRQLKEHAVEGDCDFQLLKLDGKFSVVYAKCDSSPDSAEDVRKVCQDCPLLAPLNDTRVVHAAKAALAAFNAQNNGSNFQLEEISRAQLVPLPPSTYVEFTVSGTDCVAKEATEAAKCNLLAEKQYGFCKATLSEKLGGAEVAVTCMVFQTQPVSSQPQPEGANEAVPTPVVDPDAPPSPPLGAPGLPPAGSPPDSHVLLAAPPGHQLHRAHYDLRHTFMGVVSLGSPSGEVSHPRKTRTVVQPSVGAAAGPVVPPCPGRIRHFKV
Method: FIG. 21A-D show applications of evolved sortases. (A) N- and C-terminal labeling of fibroblast growth factors FGF1 and FGF2. Tandem SUMO-TEV cleavage site-FGF1/2-LPESG-His6 (SEQ ID NO: 27) constructs were treated with eSrtA(4S-9) in the presence of GGG-PEG, then with eSrtA(2A-9) and TEV protease in the presence of Alexa Fluor750-LAETGG (SEQ ID NO: 35) and purified to afford the final conjugates in up to 20% yield (Table 3). The crude reactions were analyzed by SDS-PAGE and scanned for fluorescence at 700 nm. (B) Surface functionalization using eSrtA(2A-9) and eSrtA(4S-9). 96-well plates coated with GGG-PEG (5 kDa) were incubated with enzyme and Alexa Flur 488-LAETG (SEQ ID NO: 5; green) or Alexa Fluor 647-LPESG (SEQ ID NO: 3; red) for 2 hours, then washed three times. The total fluorescence of the resulting surfaces was measured at 488 nm or 647 nm, then normalized to the fluorescent intensities obtained from the samples containing eSrtA(2A-9)+488-LAETG (SEQ ID NO: 5) or eSrt(4S-9)+647-LPESG (SEQ ID NO: 3). (C, D) Treatment of human plasma with evolved SrtA variants for 2 hours at room temperature in the presence of GGGK(biotin) (SEQ ID NO: 22) with or without 10 mM CaCl2. […] Biotin capture and mass spectrometry identified this protein as fetuin A, confirmed by subsequent Western blot (D).
Normal human plasma was purchased from VWR (part number 89347-902) and stored at −20° C. For all reactions, an aliquot was thawed at 37° C. for 15 minutes, then vortexed to resuspend any coagulated material. To this sample was added 2 μL of 0.1 M GGGK(biotin) (SEQ ID NO: 22) for analytical reactions. Higher concentrations of GGGK(biotin) (SEQ ID NO: 22) were avoided for analytical purposes, as they caused increased background in downstream Western blotting. 10 μL of 1 M CaCl2 was added in cases of calcium supplementation. Reactions were initiated by the addition of 10 μL of 100 μM eSrtA, eSrtA(2A-9), or eSrtA(4S-9) and incubated at room temperature for 2 hours. Reactions were quenched by 10:1 dilution into SDS-PAGE loading buffer, followed by a 10 minute incubation at 95° C. These samples were then run on 4-12% Bis-Tris PAGE gels, blotted to PVDF membrane using the iBlot2 dry blotting system, blocked with Pierce Superblock buffer for 1 hour followed by incubation with 1:500 dilutions of Abcam α-Fetuin A antibody (MM0273-6M23) in Superblock buffer with 0.1% Tween-20 for 1 hour. The blot was then washed 3 times with PBS+0.1% Tween-20, then incubated again in 1:15,000 LiCor goat antimouse 680+1:15,000 Licor Streptavidin-800 in Superblock buffer with 0.1% Tween and 0.01% SDS added for 45 minutes. The blot was then washed 3 times with PBS+0.1% Tween and visualized on an Odyssey IR imager.
As in analytical labeling of Fetuin A, 1 mL of normal human plasma was combined with 10 μL 1M CaCl2, 10 μL of 0.1M GGGK(Biotin) (SEQ ID NO: 22), and 10 μL of 100 μM eSrtA(4S-9), then incubated at room temperature for 2 hours. 100 μL of pre-equilibrated Ni-NTA resin slurry and 12.5 μL 0.4M H2N-LPESGG (SEQ ID NO: 38) peptide was added to the mixture to act as a competitive inhibitor for thioester formation. The mixture was incubated at room temperature with shaking for 15 minutes, then filtered through a 0.2 μm spin filter before dilution to 10 mL final volume in PBS+1 mM EDTA+100 μM H2N-LPESGG (SEQ ID NO: 38) (PBS-EL). The solution was concentrated using a 10 kDa molecular weight cutoff spin concentrator for 20 minutes at 3500×g and a final volume of <1 mL. […]

[2] = presence of supplemental calcium (10 mM CaCl2)

Molecule	modification of GGG-PEG-functionalized surfaces [1]	fetuin A conjugation efficiency lower than that of eSrtA(4S-9) (fetuin A in human plasma; 10 mM added CaCl2)	overall conjugation efficiency in human plasma (fetuin A, densitometry) (fetuin A in human plasma; [2])	processing of fetuin A (fetuin A in human plasma; without supplemental calcium)	overall conjugation efficiency in human plasma (fetuin A, densitometry) (fetuin A in human plasma; absence of supplemental calcium)
B1	significant modification only on its cognate substrate	–	–	–	–
B2	–	90 fold	0.6%	no processing	–
B3	significant modification only on its cognate substrate	–	57.6%	–	1.8%
